Assay: label from the status in PepcDB records
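Further: failed if final PepcDB status was selected cloned or expressed and not failed if soluble or beyond.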

Sequence | protein production
MQGIKNLTHGPINRQLFNLAMPIMATSFIQMAYSLTDMAWVGRLGSEAVAAIGSVGILTWMSGSISLLNKVGSEVSVGQSIGAQNQEDARQFASHNITIALIISICWGGLLFMFASPIIRIYELEEHITANAIEYLRIISTALPFIFLSAAFTGIYNAAGRSKIPFYISGTGLIMNIILDPLFIFGFGLGTNGAAYATWLSQATVFAIFIYQLRFRKDALLGGFPFFSRLKKKYTRRILKLGLPVATLNTLFAFVNMFLCRTASEQGGHIGLMTFTTGGQIEAITWNTSQGFSTALSAFIAQNFAAGRIERVLKAWHTTLWMTGIFGTFCTLLFVFYGNEVFSIFVPEQAAYEAGGVFLRIDGYSQLFMMLEITMQGVFYGIGRTVPPAIVSIVCNYMRIPLAILFVRMGMGVEGIWWAVCVTTIAKGLILLGWFTMIRKKCLNLPSVSTR | failed
MNSKSQQQEQQPIVFVTGTDTDVGKTFVSTLLVHKWKAAYWKPVQTGIESDQGDSETLKNFKIAASTWQPPIFTPTYALQKPLSPLQAMEYEPNVDIRLLDFVVPEEWSAENPLVVEGAGGVCVPITRKLEITTDLIKHLIETSGHPVYVVVVARSGLGTLNHTLLTWNHLCDNGLRSHLFGVILNGEPNEGNVQALKKFGVNIMAQVAQCTTAHDQDMELHELPSVESLMTQQDVE | failed
MARNSDNDMCKEERKRESFFKVLQRVDISSENMRALPYDFVRSFSNNELSRKMKIKARWGSSWEVEICKNPRFYFMEKSGWEKFVSDNALGASEFLTFTHKGNMRFTVNIFMQDGKEMLQPPQSMSFMASSRPPKREQGIPSLATTIAAESNGGGNYKRKLNFEKKKAEESHNSKRTDKVFSVQRESAGASSSSVAEFSMFIKKSYLIYMWFPKSVQSIHMPKQRTIFKIHHPNMKKSWNVVYVVSGTKSSFSAGWKGLAQEYPLAVGDTCKFSFIKQHELILFVSKP | failed
MRFHFFPQPLDRAAWSVFLVALVLTLLLVWGGDRTQAQVREFSWQNRDVGASDRAFILSFNRLMDWSSVATHLRIEPALEGKASWSGRRFAYTLTQPIPYGQTFKVSLEDAVSVPQGKPIKPFQGQFRSRDRVLVYLGSGAEEGRLILYNLTLQQKIFLTPPNLRVFDFQPYPAGDRILFSAGERGEQMGFDPQLYIVTTGLYFNAPDTPRRQAHPAGEISLILDNSEYQNLRFQLANDGSKIVVQRVNRLQPADSSLWLLDENFQPRRLNQAAAGEFRIAPDNQHLIIAQGQGLAIVPLEATNGESNFDFLPQYGMVLDFSRDGRQVAAVKFNPNFSRSLYVVDIFGEHREVLTINGSIIAGQFDPSGQFLYVILTRIEGEGNYREVPYLALLDLKTKELFKLKDFDPQQELYLSLAPDGRTLAIDAVEGREIPAEVDHGDLYSETAPVTPSPRDLVELPPAPPGSPLPPRQLPAQEHQIWLLPLKLDQDKIVVGMPEPLAPGLQARWLP | failed
MLVSEMHGEVEAVKVGTEVQGRVLHWVYLYYYRNLLFDAGCPNTAQEVFEHFKGREIKAVLITHYHEDHIGAVNLFKEITDVYVPEESLEILRNPPDIPKYRKIGWGQPEKIEGVKVAKEVMKFDDVEVRMIKTPGHSFDHVSYLVDDKLFCGDLVINTAQMVCMREENLLKTIESIEKVLKYDFNYAYTGVGVASRDEVVEYLNYLKGLKEKAEMLYAEGKTIDEIVAACFPNPSQKAILMEFVSEKEWARENMVKSLLGLPRE | failed
MVHDTFMKMPEVRRRRQPTHVLVAGGNQGLGNMTAFLRAARTSTLFRYSVLCGANKQLYHEIASWQLPHIRPLPYINSPEEMNQLYDEADAVITKPGGVTISELLHKRIPIFTIDCLPGQERINWQYLRRNGLIYHLAEPGNGERKMIRLLTDDVEKNRFFRRVSDYFAGVEKTGLEHHHHHH | failed
MSKSTKVDLVFLFFTAIWGLSFPLTKNVLGYTSIFAFLSLRFTSAAVILIIIFWKKLKLINTKIILYGSLIGLMFFGSLAFQVASLRFTTSSNSSFISALSVVIVPLVSAGYYKKKIDFSCVLGVLFAVVGLFFISGGVNFKLNIGDLFSFLCAICITFQIIFIDIFCSKCDSALLSLIQVVFCAIFYNIVLFIIGTKPIVFNTQLTVSIFITGILGTAVAYTGIVFLEKFTSPTHTALIFCAEPVFATIFAMFIPNNNGSCESITINTFIGCGVILLSMVISELKIGNNIPQKIIKL | failed
MAEDTYEEECDYLFKAVLIGDSAVGKSNLLSRFSKDEFRFDSKPTIGVEFAYRNVHVGDKIIKAQIWDTAGQERFRAITSSYYRGALGALLIYDITRRTTFDNIKKWLFELRDFANPETVVVLVGNKSDLRQSREVEEDEGKTLAESEGLYFLETSALENVNVEEAFLVMIGRIHEVVTQRIASENKSNGAATPHINGNGNGTVLPVGKEIVNIHEVTATQPLLSSSSNCCFK | failed
MPSAEISSSTEAKQAATTVDVSYKTHVQTFGWQDWAANGASAGTTGLAKRLEAIQIKTSAPASQGGIRYRTHVQTYGWLDWVSDGASSGTTGEAKRLEAIQIELTGALATQYDVYYRVHAQTFGWLDWACNGASAGSAGYAKRLEAIQIVLVPKGGKAPGSTAAPYKELPPAVSYQSYLSGAWQNSVLDNAVSGTVGQAKQIEGIKISLQDKAVSFAGSSIQYRTYLQTYAWQDWTSNGGTSGKPGSGKRVEAVQIKLTGSIASSYDVYYRVHSQTFGWLDWACNGQSAGSAGYAKRIEAIQIVLVKKGGAAPGSTATPYKEAPPSVTYQTYISGGWQPTVADKATSGLAGQGKKTEGLRVSLKAGAQSLGNSSVKYRTYLQTYGWQSWVSNGASSAKAGSGKRMEAIEISLTGDISSQYDIYYRSYVTGYGWLGWACNGATSGTTDYAKPIEAVQAVLVKKGGAAPGSTSNAYLKPEVTGPFEISFSPSGASNFGGLVSIEPDHDVILVASAKGGAGGYQYRYRAELIGGSIQTLKDYSGSSSYTWRPNTPGRYKMYVDVKDSTGTVKTAMFQMSVGLSGIDVSEHQGTIDWKKVKAAGIDYAMIRAGFGWEEIDDQTDASLVQNVTGAKQAGLPFGLYHYSYADTVEEAKKEAEFLLDILEANNIAPSDLSYPIAFDIEEPDRLNVSQRRVNTDMVNAFCEIIRDAGYLPMVYASKTVIQDYLYYDEISANNIWMAAWTSTPNDTEIFDNCFPVDMWQYSESGTVDGINGRVDLNICYTTVFRDGSADTTQKGKVVVDAGSSLNVRKAPSVNADVVGSLYKDDIVTIISETSGWYQIVTSTGVSGYVSAEYIQKI | failed
MIEFVYPHTQLVAGVDEVGRGPLVGAVVTAAVILDPARPIAGLNDSKKLSEKRRLALYEEIKEKALSWSLGRAEPHEIDELNILHATMLAMQRAVAGLHIAPEYVLIDGNRCPKLPMPAMAVVKGDSRVPEISAASILAKVTRDAEMAALDIVFPQYGFAQHKGYPTAFHLEKLAEHGATEHHRRSFGPVKRALGLAS | not failed
MKAPELQIQQWFNSATDLTLADLRGKVIVIEAFQMLCPGCVMHGIPLAQKVRAAFPEDKVAVLGLHTVFEHHEAMTPISLKAFLHEYRIKFPVGVDQPGDGAMPRTMAAYQMRGTPSLLLIDKAGDLRAHHFGDVSELLLGAEIATLLGEAAPSVQKQAGTPQGDANCDNDGCTV | not failed
MTKYLKYFIISMFRSRGLIFFGLFLILLSLIPNMLSISDSAHYSLKVLNHASRWYGLAILISFSIVSGTLAQMIYFSSSAIIYLHRHSKLSINRYYFESTLGAMVIFGIYALIILFATIVGYSYVSKNIIFPKKLLMLVLFTMLAGLFYFSLSFSLQAIATLLKKAHLIEYLAYFLISLTFLLGYLQVNTSLDVSLLVFLSPLNSILSLLIYGYSGILSFSVEFLLVTSLFYITVLQLISVWSLKRLKEVRIEDKLI | failed
MDEAYKMRCDWYHHGELVSGGESESKFSQLNDEVVELYQAAEYLDEEFAGMVHLGEIVERDDKKEDEFLAKLADAETPLYPSCFNHSKLSAIMSLFTLKTKNGWSDKSHNDLLETLPEMLLEDNVLHSSLYEVKKFLKSFDMG | failed
MKTMNYSLIRILFALVIGLVLVLWPNTAASYIVITIGVAFLIPGVISLFSFFGRKRSEHEPAPRFPIEGIGSLLFGLWLIVMPEFFADVLMFLLGFILIMGGVQQIASLSMARRWTPVPGIFYLVPSLILIAGVIALFNPTGVRNTAFIIIGISSLVYSLSELINWFKFARRRPKTPVTPHDEDIEDAKIIE | failed
MTGPDRVALLVLAALVLDWLLGDPRWLPHPVVAVGRLVTALERQLRRLVTNERAAGVILLVLTVGITGGTAWLLVLGAGLVHPVAGFAVEALLGWTCLAARSLHGESKLVADALAAGDLAEARFFLSRIVGRDTAELTEPEIWRGVVETVAENTSDGVIAPLFWFMIGGAPLALAYKAVNTLDSMVGYKNERYLHFGWASARFDDLVNLLPARITGLLMVLSAPLAGLSGPGAWRIMRRDGRNHSSPNAGIPEAAAAGALGVRLGGMNVYFGRPVAKPTIGDPLNPLDRTAWRGAVRLMYGSEILLTGFMLCYLFVLERP | failed
MRKPKITVIGGGTGSPVILKSLREKDVEIAAIVTVADDGGSSGELRKNMQQLTPPGDLRNVLVAMSDMPKFYEKVFQYRFSEDAGAFAGHPLGNLIIAGLSEMQGSTYNAMQLLSKFFHTTGKIYPSSDHPLTLHAVFQDGTEVAGESHIVDHRGIIDNVYVTNALNDDTPLASRRVVQTILESDMIVLGPGSLFTSILPNIVIKEIGRALLETKAEIAYVCNIMTQRGETEHFTDSDHVEVLHRHLGRPFIDTVLVNIEKVPQEYMNSNRFDEYLVQVEHDFVGLCKQVSRVISSNFLRLENGGAFHDGDLIVDELMRIIQVKK | not failed
MSEQRQDKNLLSEPHKTESDEIEIDLVDIFRKIIAIRRKLYKAIGVGFIIGMIVAVSIPKQYTVKVTLSPEMGSSKGGNGLAGLAASFLGSSATTGEVSDALNASLSSDIVSSTPFLLELLDMKVALSDERTDITLMDYLDRQSSPWWNYVIGLPGMVIGGVKSLFNSDDNDNSLNKVKSGTIELTKEEGIKVNVLKKNISASVDKKTAITSVSVTLQDPKVTAVVADSVVHKLQECIVGYRISKAEEDCIYLEKLYKERQQEYYVAQKKYADYVDTHDNLILQSVRAEQERLQNDMNLAYQVYSQVANQLQVARAKVQEEKPVFAVIEPAVVPQHASSIGLRIYVLLFIFLSVCYTISWNLLGKKIRYILKGSKENQQ | failed
MRRLRFSPRSSFARTLLLIVTLLFASLVTTYLVVLNFAILPSLQQFNKVLAYEVRMLMTDKLQLEDGTQLVVPPAFRREIYRELGISLYSNEAAEEAGLRWAQHYEFLSHQMAQQLGGPTEVRVEVNKSSPVVWLKTWLSPNIWVRVPLTEIHQGDFSPLFRYTLAIMLLAIGGAWLFIRIQNRPLVDLEHAALQVGKGIIPPPLREYGASEVRSVTRAFNHMAAGVKQLADDRTLLMAGVSHDLRTPLTRIRLATEMMSEQDGYLAESINKDIEECNAIIEQFIDYLRTGQEMPMEMADLNAVLGEVIAAESGYEREIETALYPGSIEVKMHPLSIKRAVANMVVNAARYGNGWIKVSSGTEPNRAWFQVEDDGPGIAPEQRKHLFQPFVRGDSARTISGTGLGLAIVQRIVDNHNGMLELGTSERGGLSIRAWLPVPVTRAQGTTKEG | failed
MSENQSEEVQQIEKLYEFSERLNASKDKSQNVEDYEGIIKMSKTSMKAKQLASQLIPRYFKFFPSLSTEAFDAHMDCIDDGDLGVRVQAIRGLPLFCKDTPDILSKIVDVLVQLLNTEEPVERDAVHKALMSLLRQDPKASSTALFTHAGVTPTTDDQIREKVLNFIRDKVIPLKGELLKPQEEMERHITDLIKQSLEDVTGGEFKMFMDFLTSLSIFGGKAPPERMQELVEIIEGQADLNAQFEFSDTDHIDRLISCLQLALPFFARGAPSSRFLIYLNKHIIPVFDKLPEERKLDLLKALADISPYTTAQEARQLLPSIVELLKIYMPARKTGEEMNFTYVECLLYAFHHLAHKVPNATNSLCGYKIVTGQPSDRLGEDFSELNKDFTERLTIVEDLTKATMKKLTQGMTEHNKAMSAAKTDEEKASIVSTLTCAIFYFS | failed
MRYKRRFVTVYRDFPEGCGVPSKPISNADESFMQSKFNKDGIVLQAHEDFSKITKESSNHSETENSRTEDLLDEGSVLDSNGSVTDCQEDREREMSSVKKRCLSSHNLTSEVETERIGIVLGLAAKAKCPWRQPKIRGSRQVNDLN | failed
